Experimental data published in US20220372138A1 (IOMX THERAPEUTICS, published 2022).
Numbering of substitutions follows the chain as printed. Where two headings read alike, the source gives them in different places.

What was measured:
[1] = target: T1, full-length ECD of human IGSF11 fused to murine Fc (human, UniProt Q5DX21 23-241); assay: IgG ELISA
T1 construct: also called Fc-fusion IGSF11 ECD; not shown: murine Fc
T1 sequence: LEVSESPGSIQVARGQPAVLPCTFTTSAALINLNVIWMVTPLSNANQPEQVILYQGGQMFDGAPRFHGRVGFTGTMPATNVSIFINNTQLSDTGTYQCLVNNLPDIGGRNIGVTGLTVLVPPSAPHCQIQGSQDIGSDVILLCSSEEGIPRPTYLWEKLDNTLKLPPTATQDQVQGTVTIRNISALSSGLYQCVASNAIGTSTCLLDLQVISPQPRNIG

[2] = target: T2, IgV domain of human IGSF11 fused to murine IgG2a Fc (human, UniProt Q5DX21 23-143); assay: IgG ELISA
T2 construct: not shown: murine IgG2a Fc-region
T2 sequence: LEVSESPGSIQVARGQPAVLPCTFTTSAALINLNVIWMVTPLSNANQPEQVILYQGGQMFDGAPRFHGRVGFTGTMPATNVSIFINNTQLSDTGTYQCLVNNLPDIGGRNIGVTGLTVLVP

[3] = target: T1, full-length ECD of human IGSF11 fused …; assay: ELISA: Fc-fusion IGSF11 ECD coated, IgG dilution series, anti-human IgG-HRP
Method: (§1) Binding of IgG antibodies to each of the full-length ECD of IGSF11, to the IgV domain of IGSF11 and to the IgC2 domain of IGSF11, was tested in the ELISA assay as follows: briefly, recombinant domains of Fc-fusion IGSF11 proteins were coated at 2 ug/mL on a 384-well Maxisorp plate. The surface was blocked with 2% (w/v) skim milk powder in PBST. […] After removing all unbound antibodies by 3 wash cycles with PBST, bound IgG ABPs were detected with a goat anti-human IgG antibody conjugated with horseradish peroxidase. After three wash cycles with PBST the ELISA was developed with TMB substrate.

[4] = target: T3, human IGSF11 (VSIG3) ECD, His-tagged (human, UniProt Q5DX21 23-241); assay: IgG1 ELISA EC50 0.02-0.05 nM
T3 construct: in part bought (SinoBiological 13094-H08H); also called HIS-IGSF11; IGSF11-HIS; not shown: His tag
T3 sequence: T1 sequence

[5] = target: T4, human IGSF11 (VSIG3) expressed on cells (human, UniProt Q5DX21 23-431); assay: IgG1 FACS DMS 273
T4 sequence: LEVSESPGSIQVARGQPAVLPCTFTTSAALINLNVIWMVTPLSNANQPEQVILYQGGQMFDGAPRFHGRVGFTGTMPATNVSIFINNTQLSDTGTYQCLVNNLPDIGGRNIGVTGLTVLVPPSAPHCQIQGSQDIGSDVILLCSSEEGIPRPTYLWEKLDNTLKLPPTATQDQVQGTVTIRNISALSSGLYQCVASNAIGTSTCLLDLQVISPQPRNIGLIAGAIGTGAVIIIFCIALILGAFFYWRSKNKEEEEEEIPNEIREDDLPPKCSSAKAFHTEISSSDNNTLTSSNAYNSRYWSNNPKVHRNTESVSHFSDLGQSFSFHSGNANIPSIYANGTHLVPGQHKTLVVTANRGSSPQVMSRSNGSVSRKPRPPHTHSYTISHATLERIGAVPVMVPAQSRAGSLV

[6] = target: T5, extracellular domain (ECD) of human IGSF11 (VSIG3), recombinant (human, UniProt Q5DX21 23-241); assay: SPR
T5 construct: biotinylated where captured on streptavidin; tags of the reagent not always stated; also called IGSF11 (ECD domain); ECD-IGSF11
T5 sequence: T1 sequence

[7] = target: T6, IgC2 domain of human IGSF11 fused to murine IgG2a Fc (human, UniProt Q5DX21 137-241); assay: BLI: IgC2 domain-mFc captured on the sensor, IgG1 in solution, concentrations not given [Cont.) D]
T6 construct: not shown: murine IgG2a Fc-region
T6 sequence: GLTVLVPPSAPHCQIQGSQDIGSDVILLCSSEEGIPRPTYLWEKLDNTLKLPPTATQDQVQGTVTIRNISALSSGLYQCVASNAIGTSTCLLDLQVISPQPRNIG

[8] = target: T6, IgC2 domain of human IGSF11 fused to …; assay: IgG ELISA
Method: as §1

[9] = target: T6, IgC2 domain of human IGSF11 fused to …; assay: ELISA: IgC2 domain-mFc fusion coated, IgG dilution series, anti-human IgG-HRP
Method: as §1

[10] = target: T1, full-length ECD of human IGSF11 fused …; assay: ELISA: Fc-fusion IGSF11 ECD coated, IgG dilution series, anti-human IgG-HRP; remark: listed apart in the source
Method: as §1

[11] = target: T2, IgV domain of human IGSF11 fused to …; assay: BLI: IgV domain-mFc captured on the sensor, IgG1 in solution, concentrations not given [Cont.) D]
[12] = target: T4, human IGSF11 (VSIG3) expressed on cells; assay: FACS, DMS 273 cells with IGSF11 siRNA (KD, knock-down control)
[13] = target: T4, human IGSF11 (VSIG3) expressed on cells; assay: IgG1 FACS HEK-OE
[14] = target: T3, human IGSF11 (VSIG3) ECD, His-tagged; assay: blocking ELISA: VSIR-Fc immobilised, IgG dilution series pre-incubated with 200 nM IGSF11 ECD-His, bound IGSF11 detected with anti-His-HRP
Method: All binding steps were for 1 hour at room temperature, and all washing steps were three times washing with PBS/Tween (0.05%).

[15] = target: T4, human IGSF11 (VSIG3) expressed on cells; assay: FACS, M579-A2-luc cells with scrambled control siRNA (SC)
[16] = target: T3, human IGSF11 (VSIG3) ECD, His-tagged; assay: IgG1 ELISA EC50 <0.02 nM
[17] = target: T5, extracellular domain (ECD) of human …; assay: BLI apparent affinity, IgG on AHC sensor, IGSF11 ECD 100 nM
From the text: Briefly, various APBs were loaded on an optical biosensor via a commercially available Capture System (AHC sensors, ForteBio).

[18] = target: T5, extracellular domain (ECD) of human …; assay: BLI
[19] = target: T4, human IGSF11 (VSIG3) expressed on cells; assay: FACS, DMS 273 cells with scrambled control siRNA (SC)
[20] = target: T4, human IGSF11 (VSIG3) expressed on cells; assay: FACS, M579-A2-luc cells with IGSF11 siRNA (KD, knock-down control)
[21] = target: T3, human IGSF11 (VSIG3) ECD, His-tagged; assay: ELISA: IGSF11-HIS coated, IgG1 dilution series, anti-human antibody-HRP, TMB
[22] = target: T4, human IGSF11 (VSIG3) expressed on cells; assay: IgG FACS Colo741
From the text: (§2) Unbound antibodies were removed by washing the cells three time with FACS buffer. Bound antibodies were detected with a mouse anti-human IgG antibody conjugated with AlexaFluor647.

[23] = target: T7, murine IGSF11 expressed on cells (mouse, UniProt P0C673 23-428); assay: IgG FACS MC38-wt
T7 construct: MC38-IGSF11, CT26-IGSF11, MC38-wt (naturally expresses murine IGSF11)
T7 sequence: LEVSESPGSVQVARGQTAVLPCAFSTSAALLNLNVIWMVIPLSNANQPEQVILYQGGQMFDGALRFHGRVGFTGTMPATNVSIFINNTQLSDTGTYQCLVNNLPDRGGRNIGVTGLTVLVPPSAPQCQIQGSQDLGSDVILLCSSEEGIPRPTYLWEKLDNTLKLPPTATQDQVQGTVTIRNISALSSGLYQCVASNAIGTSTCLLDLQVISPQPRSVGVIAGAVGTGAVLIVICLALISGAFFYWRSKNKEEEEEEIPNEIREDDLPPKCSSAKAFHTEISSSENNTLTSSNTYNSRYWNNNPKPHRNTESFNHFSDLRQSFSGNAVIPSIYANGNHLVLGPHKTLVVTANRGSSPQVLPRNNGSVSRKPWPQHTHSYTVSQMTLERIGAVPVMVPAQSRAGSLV
From the text: as §2

[24] = target: T7, murine IGSF11 expressed on cells; assay: IgG FACS MC38-IGSF11
From the text: as §2

[25] = target: T1, full-length ECD of human IGSF11 fused …; assay: IgG ELISA; remark: listed apart in the source
Method: as §1

[26] = target: T6, IgC2 domain of human IGSF11 fused to …; assay: IgG ELISA; remark: listed apart in the source
Method: as §1

[27] = target: T7, murine IGSF11 expressed on cells; assay: IgG FACS, murine IGSF11 cell lines of Table 13.4; murine IGSF11 cell lines (MC38-IGSF11, MC38-wt)
[28] = target: T4, human IGSF11 (VSIG3) expressed on cells; assay: IgG FACS, human IGSF11 cell lines of Table 13.4; human IGSF11 cell lines (Colo741, MDA-MB-231-IGSF11)
[29] = target: T4, human IGSF11 (VSIG3) expressed on cells; assay: IgG FACS MDA-MB-231-IGSF11
From the text: as §2

[30] = target: T7, murine IGSF11 expressed on cells; assay: IgG FACS CT26-IGSF11
From the text: as §2

B1: A-024 (IgG1 format) (antibody, V domains shown)
VH: QMQLVQSGAEVKKPGSSVKVSCKASGGTFSSYAISWVRQAPGQGLEWMGWISAYNGNTNYAQKLQGRVTMTTDTSTSTAYMELRSLRSDDTAVYYCASLGSYGYTGAFDIWGQGTMATVSS
VL: QSALTQPASVSGSPGQSITISCTGTSSDVGGYNYVSWYQQHPGKAPKLMIYEVSNRPSGVSNRFSGSKSGNTASLTISGLQAEDEADYYCSSYTSSSTLVVFGGGTKLTVL
notes: also called A-024-like ABP
[1]
  EC50: < 1 nM
[2]
  EC50: < 1 nM
[3]
  EC50 (read off the curve): ~0.4 nM
[4]
  EC50: 0.02 to 0.05 nM
[5]
  EC50: < 10 nM
[6]
  Kd: > 500 nM
[7]
  binding result: no binding

B2: A-006 (IgG1 format) (antibody, V domains shown)
VH: EVQLVESGGGLIQPGGSLRLSCAASGFTVSSNYMSWVRQAPGKGLEWVSVIYSGGSTYYADSVKGRFTISRDNSKNTLYLQMNSLRAEDTAVYYCARGNPYYYGDLQVNFDYWGQGTLVTVSS
VL: QAVVTQEPSLTVSPGGTVTLTCASSTGAVTSGYYPNWFQQKPGQAPRPLIYSTSNKHSWTPARFSGSLLGGKAALTLSGVQPDDEAEYYCLLYYGGDWVFGGGTKLTVL
notes: human IgG1 format; also called A-006-like ABP
[1]
  EC50: < 1 nM
[8]
  EC50: < 1 nM
[9]
  EC50 (read off the curve): ~0.4 nM
[10]
  EC50 (read off the curve): ~0.5 nM
[11]
  binding result: no binding
[12]
  % binding (FACS heat-map): 5.72%
[13]
  EC50: 10 to 50 nM
[14]
  IC50 (read off the curve): ~4 nM
[15]
  % binding (FACS heat-map): 75.3%
[16]
  EC50: < 0.02 nM
[17]
  Kd: < 15 nM
[18]
  Kd: 1 to 10 nM
[5]
  EC50: > 50 nM
[19]
  % binding (FACS heat-map): 81.1%
[20]
  % binding (FACS heat-map): 2.59%
[6]
  Kd: 250 to 500 nM
[21]
  EC50 (read off the curve): ~0.01 nM

B3: D-116 (IgG format) (antibody, V domains shown)
VH: EVQLLESGGGLVQPGGSLRLSCAASGFTFKHSAISWVRQAPGKGLEWVSAISYGGGSQYYADSVKGRFTISRDNSKNTLYLQMNSLRAEDTAVYYCARDSRDAYGVAFDLWGQGTMVTVSS
VL: ASVLTQPPSVSAAPGQKVTISCSGSSSNIGNNYVSWYQQLPGTAPKLLIYDNNKRPSGIPDRFSGSKSGTSATLGITGLQAEDEADYYCQSYGHRSFVFGGGTKLTVL
[22]
  EC50: < 0.5 nM
[23]
  EC50: < 0.1 nM

B4: C-005 (IgG1 format) (antibody, V domains shown)
VH: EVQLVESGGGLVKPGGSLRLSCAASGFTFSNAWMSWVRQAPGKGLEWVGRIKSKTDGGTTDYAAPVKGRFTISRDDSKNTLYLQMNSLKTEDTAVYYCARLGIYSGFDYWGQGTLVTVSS
VL: SYELTQPPSVSVSPGQTASITCSGDKLGDKYASWYQQKPGQSPVLVIYQDSKRPSGIPERFSGSNSGNTATLTISGTQAEDEADYYCHSYTGKPSQVVFGGGTKLTVL
[24]
  EC50: < 20 nM
[25]
  EC50: < 1 nM
[26]
  EC50: < 1 nM
[27]
  EC50: ~2 nM
[17]
  Kd: < 15 nM
[28]
  EC50: ~2 nM
[29]
  EC50: < 10 nM
[30]
  EC50: < 20 nM

B5: D-223 (IgG format) (antibody, V domains shown)
VH: EVQLVESGGGLVKPGGSLRLSCAASGFTFSHAWISWVRQAPGKGLEWVGQIKGGPGSGGTSYAEPVKGRFTISRDDSKNTLYLQMNSLKTEDTAVYYCARLGIYSGFDYWGQGTLVTVSS
VL: B4 VL with T91L, G92H, K93L, S95P, Q96T
[22]
  EC50: < 0.5 nM
[23]
  EC50: < 0.5 nM
